Measurements from the RNAGym collection of RNA variant scans (doi:10.7554/elife.80360).

B1: Hairpin Ribozyme (parent)
chain: GUCCUCUUUCACGUGCGCGUGAAAGAGAGAAGUGAACCAGAGAAACACACGUUGUGGUAUAUUACCUGGUA

Variants of: B1
Experiment: self-cleavage, relative activity (ratio to wild type); higher = more cleavage; co-transcriptional

| Variant | self-cleavage |
| --- | --- |
| G29C C50U | 0.144 |
| G29C C50G | 0.0763 |
| A31C A36G | 0.124 |
| A31C A36C | 0.123 |
| G29C A39U | 0.0768 |
| A31U U62C | 0.147 |
| A31U U62G | 0 |
| G29U U33G | 0.0639 |
| A31U U60A | 0.0868 |
| A31U A36G | 0.151 |
| A31U A36C | 0.197 |
| A30U U60A | 0.346 |
| A31G G40U | 0.168 |
| A31G G40A | 0.179 |
| A31G G40C | 0.247 |
| A31C C50G | 0.0635 |
| A31C G69A | 0.0915 |
| G29U G32A | 0.169 |
| G29U G32U | 0.164 |
| G29U G34C | 0.0691 |
| G29C U63G | 0.0807 |
| A31C C46G | 0.0917 |
| A31C C46A | 0.0889 |
| A31C C46U | 0.187 |

| Variant | self-cleavage |
| --- | --- |
| A31U A35C | 0.185 |
| A31U A35U | 0.162 |
| A31C U67G | 0.0719 |
| A30G A45G | 0.17 |
| A31G C48A | 0.164 |
| A31C A47G | 0.108 |
| G29A U62G | 0.21 |
| G29C A43G | 0.261 |
| G29U G54A | 0.104 |
| A31U A45G | 0.0267 |
| A31U A45U | 0.131 |
| A30U A43G | 0.108 |
| A30G A61C | 0.109 |
| A30U U33G | 0.138 |
| A31C U70G | 0.0868 |
| G29U A45G | 0.136 |
| A30C C50U | 0.118 |
| A31G A45U | 0.236 |
| A31G A45C | 0.241 |
| A31C A49G | 0.0512 |
| A30C C46A | 0.0713 |
| A30C C46G | 0.0771 |
| A30U G69U | 0.149 |
| A30U G69A | 0.146 |

| Variant | self-cleavage |
| --- | --- |
| A30U A47C | 0.0639 |
| A30G G51C | 0.199 |
| A31U A41C | 0.154 |
| A31U A47G | 0.101 |
| A30C G56U | 0.157 |
| G29C G54C | 0.0908 |
| G29C G54A | 0.1 |
| A30U G54U | 0.165 |
| A30U G54A | 0.137 |
| A30U U58A | 0.115 |
| A30C A44C | 0.0571 |
| A30C A47U | 0.105 |
| A31G C65U | 0.252 |
| A30U A64U | 0.13 |
| A31G G56C | 0.164 |
| A31G G56U | 0.106 |
| A31G G32C | 0.0299 |
| A31G G32A | 0.0999 |
| A30C G32A | 0.145 |
| A30U U67G | 0.176 |
| A30U U67C | 0.0825 |
| A30U U67A | 0.0771 |
| A30C G34U | 0.815 |
| A30G U60C | 0.252 |

| Variant | self-cleavage |
| --- | --- |
| A30C A31U | 0.129 |
| A30U G56U | 0.149 |
| A30U G56A | 0.127 |
| A31G A61C | 0.16 |
| A31G A61U | 0.159 |
| A31C A71G | 0.212 |
| A31C A71C | 0.202 |
| A31U U58C | 0 |
| A31G U70A | 0.509 |
| A30G U62G | 0.112 |
| A31U G40A | 0.117 |
| A31G G69U | 0.258 |
| A31G G69A | 0.178 |
| A31G C37G | 0.162 |
| A31G C37A | 0.158 |
| A30U G57C | 0.0918 |
| A31C U55G | 0.1 |
| A30G G68U | 0.169 |
| A31U G57A | 0.169 |
| A31U G57U | 0.216 |
| A31U G57C | 0.155 |
| G29C C65A | 0.204 |
| G29C C65G | 0.209 |
| G29C A59C | 0.205 |

| Variant | self-cleavage |
| --- | --- |
| G29C A59G | 0.0639 |
| A30U C65U | 0.0165 |
| A30U C65G | 0.228 |
| G29C A31U | 0.0962 |
| A30G C50U | 0.0809 |
| A30G C50A | 0.0824 |
| A31C U33G | 0.0823 |
| A31U A49G | 0.121 |
| A31U A49C | 0.139 |
| A30C G54C | 0.173 |
| A30C G54A | 0.107 |
| A30U A31C | 0.288 |
| A31U C37G | 0.237 |
| G29U U63G | 0.103 |
| A31G A36U | 0.306 |
| A31G A36C | 0.363 |
| G29U A61C | 0.14 |
| G29U A36G | 0.275 |
| G29U A36C | 0.101 |
| A31G A49U | 0.11 |
| G29C U58C | 0.159 |
| A30C U33C | 0.1 |
| A30C U33G | 0.0878 |
| G29C U33A | 0.0541 |

| Variant | self-cleavage |
| --- | --- |
| A30U A61U | 0.0778 |
| A30U A61C | 0.069 |
| A30C A43U | 0.128 |
| A31C U58A | 0.171 |
| A31C U58G | 0.131 |
| A31C U58C | 0.247 |
| A30U U63A | 0.13 |
| A31C C66U | 0.225 |
| A31G G57U | 0.23 |
| A31U C66A | 0.3 |
| A31U C66U | 0.0749 |
| G29A U58C | 0.202 |
| G29A U58G | 0.13 |
| G29C U53A | 0.116 |
| G29C U53G | 0.0421 |
| A31G U60C | 0.836 |
| A31G A44U | 0.205 |
| A31G A44G | 0.208 |
| A30C U53C | 0.203 |
| A30C U53G | 0.284 |
| A30C A61C | 0.251 |
| A31U A43C | 0.169 |
| A30G A43C | 0.1 |
| A30G U58C | 0.0836 |

| Variant | self-cleavage |
| --- | --- |
| A30C U60G | 0.181 |
| G29U U70C | 0.127 |
| G29U C65U | 0.105 |
| G29U U55A | 0.0925 |
| G29U U55G | 0.062 |
| G29U U55C | 0.0858 |
| G29C A44C | 0.126 |
| A31C U60C | 0.188 |
| A30U C50G | 0.157 |
| A31C A64U | 0.11 |
| A30C U63C | 0.0293 |
| G29C G40U | 0.171 |
| A31U G69A | 0.182 |
| G29U C37G | 0.0458 |
| A31G G54C | 0.276 |
| G29C U70G | 0.119 |
| G29C U70A | 0.162 |
| A30C C48U | 0.17 |
| G29U A64G | 0.0899 |
| A30G A36U | 0.152 |
| G29U A59U | 0.104 |
| G29U A59G | 0.0822 |
| A31U C48A | 0.166 |
